B1: TPR t1 (parent)
chain: GACCAAUCUGCCCUCAGAGCUCGAGAACAUCUUCGGAUGCAGAGGAGGCAGGCUUCGGUGGCGCGAUAGCGCCAACGUCCUCAACCUCCAAUGCAUCCCACCACAUGAUGAUGCCUGAAGAGCCUUGGUUUUUUG

Variants of: B1
Experiment: polymerase ribozyme fitness, log enrichment relative to wild type (log ratio); higher = more active; in vitro selection for triplet polymerase activity
Summary of the method: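 To select mutant libraries of each subunit of a heterodimeric triplet polymerase ribozyme, built by PCR and transcribed, each was annealed with a biotinylated primer, partner subunit and triplets, then incubated frozen at −7 °C. Extended constructs were gel-excised, captured on streptavidin beads and amplified by RT-PCR, in one round carried out in triplicate. Illumina sequencing of input and output libraries kept genotypes with ≥10 input reads and ≥1 read per output. Fitness is the base-2 logarithm of genotype enrichment relative to wild-type enrichment, from inverse-variance-weighted replicate averages.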

Variant | polymerase ribozyme fitness (log ratio)
C13U G45A G71C | -0.496
C13U A24G A50U | -1.91
C13U A46U C72G G122A | -1.17
C12U U14C C72G C82G U112A | 0.602
C13A A50U | -3.1
C12U G60U G69A C86U C101A U112C | -6.42
C13A C64U | -1.99
C12U G61A U106A C114A | -0.698
C13U G69C U116C G120C | -0.88
C12U U109C | -2.5
C13U A18G G52C | -3.22
C13G G48C G63U A105C C124A | -4.22
C12U G61U | 0.129
C13U G58C A84G | -0.641
C13G G58U G60C | -2.45
C13U C82U | -0.268
C13A G44A C89U C102G | -6.88
C13A C70G U112A C123U | -4
C13U G52C U59C C104U G120U G127A | -1.32
C13G C22U G39U C53G | -5.48
C13A A29G C53U | -2.88
C13A C28G C34A G69A A84C G110C | -4.89
C13U C40U G48U G110A G117U A118U | -4.23
C13G A74G C79U | -1.86

Variant | polymerase ribozyme fitness (log ratio)
C13A A41G G63A U132C | -4.55
C13G A16U C49A G63A | -3.65
C13G G36U A75G G77A C123U | -0.649
C13G G52A C72G C85A | -4.46
C12U U21A G35A | -4.8
C13U G69U C94U | 0.248
C12U U87A | 0.248
C12U U30G G63U G113C G117C | -7.89
C13G G48U C64U | -2.15
C13G C53G G93C C101A | -3.63
C13U G45U G117U | -2.03
C13U G51A U55A C79G C89A | -5.95
C12U U133A | 0.306
C13U G17U C49U A50C | -2.06
C12U G69C C73U U129G | -3.42
C13U C79A C115A G127C | -1.14
C13A C73G G120A C123A | -1.91
C13G C72U A119U | 0.275
C13G C82U | -2.11
C13G A37U G48A C49U C85U G93C G120U | -1.53
C13U U81A | -0.11
C13A G36C | -1.87
C12U G117A | 0.626
C13A C40U | -1.37

Variant | polymerase ribozyme fitness (log ratio)
C13A C49G C56G U96A | -3.42
C13U A46U C56A C85U | -2.14
C13A A90U | -3.48
C13U G51C C85A C124G | -3.2
C13U A105U C115A A121U | 0.733
C13U C20G C64A C73U C104A G110U A121U | -7.37
C13A A26G C53G A84U A90G | -4.94
C13U G71U U78G U133G | -0.454
C13G C22G C72G C94U C99A G120C | -6.57
C13A G39U U59G G69C | -3.36
C13G C15U G69A C114U | -6.44
C12U U33G U131A | -4.55
C13G G52C C86U A118G | -5.59
C13U A29U U78A C80U U96G U116G G120U G122A | -5.15
C13U C80U A84C C124U | 1.02
C13G G63C U112C G127C U129A | -2.13
C13U A18U G42C U87A C124U | 0.0751
C13G G42A C85U C124G | -1.82
C13A A50U G71U | -2.57
C13U C123A | 1.1
C13G C49A G60U | -2.3
C13G G47A | -2.67
C13U A18G G23A A46U A111G | -7.19
C13U G128C | -1.81

Variant | polymerase ribozyme fitness (log ratio)
C13G C28U | -3.35
C13U A50G | -0.113
C13U U14G A16U G93U G120C | -3.43
C13U G71U U78C | 0.0986
C13U C70G | -1.68
C13U G25C C62G C82A C86A C102U U109C | -7.42
C13U G47U G135U | -2.07
C13A G61A | -1.81
C13U A41C G52U G60C G120A U126G | -1.71
C13G A41C | -3.32
C13U C76G C85U C104G | -7.55
C13A G19U C82A U87G G120A | -3.21
C13U A29G A83G | -1.83
C13G U54G | -1.83
C13A G48A G61A U106A A118G | -2.04
C13U A74C | 0.251
C13G A37U | -1.57
C13G A37G | -2.1
C13U G42U G48A U129A | -2.82
C13U C34G U133A | -4.86
C13U G23A | -5.12
C13G C56U | -1.58
C13U A29U C102U | -3.96
C13U A75G C76G U133A | -0.431

Variant | polymerase ribozyme fitness (log ratio)
C13U G17U G63U U78C | -3.99
C13A A16U C94U A111U C123G U130C | -6.28
C13A C101U | -2.13
C13U A41U U126C | -2.14
C13G C62U U125A | -1.62
C13G C20A C49U C64U U96G | -4.56
C13A C88G A105G G120U | -4.2
C13A C73G | -3.11
C13U C73G C82A U87C C101A G110C G127A | -6.6
U14A A111G U130A | -3.57
C13U C49U U55G U92A | -4.11
C13G C40A C123U | -0.0334
C13G G58C U92C | -3.7
U14A C22U A37U C79U A83C A84C | -5.43
C13U C72U A74C | 0.529
C13U G19A A41U G44U G69U | -2.81
C13U A41G A43C U87C G113A G122U | -1.25
C13U C82A C97A | -4.74
C13G G48U C53A U59G | -1.72
C12U U116G | -0.0621
C13U G51U G52U U78C C82A | -2.57
C13U C88A A90C | -1.03
C13A G69U A74U U87A A100C U109A | -5.82
C13A A24G A29G C94A | -4.2

Variant | polymerase ribozyme fitness (log ratio)
C13G C56G C101U | -2.67
C13U C101A | -0.869
C13U C101U | -0.0534
C12U U54A C64U | 0.381
C13A A46C G69C C124G | -1.36
C12U G63A G113A | -1.59
C13U C64U U92C U96C | -1.14
C13G G69C C98U | -3.93
C13U G48U | -1.37
C13A G39C C76G U106C | -2.79
C13U G45A | -0.438
C13A A121C G128C | -1.87
C13G G48C U106C U112G G122A G135A | -2.17
C13U C89A | -1.08
C13A U109A G110C G128U | -3.64
C13G C72A C82A U96G A100U C115A | -3.76
C13A C94G C101A | -4.8
C12U G69C | -0.628
C12U U14A G110U G113A U130C | -4.17
C13A A27C G36A | -4.52
C13U G42U G61A A90U A95U | -1.48
C13U C70G A83C U112C | -1.45
C13A G51A | -4.85
C12U G61A A84U | 0.279

Variant | polymerase ribozyme fitness (log ratio)
C13A G61A C89A | -3.18
C13G A90C A95G | -3.14
C13A C89A | -3.37
C13G C53G C72U | -1.34
C13A C49A G71A | -1.76
C13A C76G C97U C102A C104U | -3.66
C13U U30G U55G A111U | -4.31
C13U C22G A41U U78G U81C G122A | -4.41
C12U G71A A111C C115A U131G U133A | -0.622
C12U U33G G69U C99A C115A U125C | -6.8
C13U C20U C72A C76A | -2.68
C12U G61U A105G | -1.62
C13G C49U G51A U125A | -4.36
C13G G48A C56A C73A | -3.11
C13U A18U A118G | -1.84
C13G U32C U78C | -2.51
C13U U38G G63U C79G C88U C99G G110U G113U | -6.9
C13U C20U G61U C114A | 0.523
C13G G45U G71U C85A | -4.6
C13U G35C G48C C73A A74G C104U | -4.6
C13A A100U U131G | -2.21
C12U G69U U78G A100U | -0.359
C13A U38C C49G G61U U106G C115G G135C | -6

— the RNAGym collection of RNA variant scans (doi:10.1073/pnas.2313332121)
